Assay results published in article PMC10853779.

Molecular target: T1, phosphorylated NarL (E. coli nitrate-responsive transcription regulator), wild type (E. coli K12), P0AF28
T1 chain: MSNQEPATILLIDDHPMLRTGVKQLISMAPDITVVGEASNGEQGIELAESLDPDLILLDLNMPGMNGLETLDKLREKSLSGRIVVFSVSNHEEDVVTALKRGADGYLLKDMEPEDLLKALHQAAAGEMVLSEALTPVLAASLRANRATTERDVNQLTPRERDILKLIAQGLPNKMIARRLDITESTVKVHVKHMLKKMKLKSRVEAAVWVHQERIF
Experiment: cryo-EM structure
Conditions: remark: other sources report otherwise

- stoichiometry N: 2
B1: phosphorylated NarL (E. coli nitrate-responsive transcription regulator), wild type, P0AF28 1-216 (natural protein)
chain: MSNQEPATILLIDDHPMLRTGVKQLISMAPDITVVGEASNGEQGIELAESLDPDLILLDLNMPGMNGLETLDKLREKSLSGRIVVFSVSNHEEDVVTALKRGADGYLLKDMEPEDLLKALHQAAAGEMVLSEALTPVLAASLRANRATTERDVNQLTPRERDILKLIAQGLPNKMIARRLDITESTVKVHVKHMLKKMKLKSRVEAAVWVHQERIF
